Measurements as given in patent US20070141652.

Key:
[1] = biological target: purified wild-type Xenopus TPX2 (GST tag removed)
[2] = biological target: ΔNTPX2 (Xenopus TPX2 with amino acid 1 to 40 deleted, GST tag removed)

B1: Xenopus Aurora A kinase (AurA, also called Eg2), endogenous in egg extracts (protein)
chain: MERAVKENHKPSNVKIFHPMTEGAKRIPVNQPQSTQFRPPGTAVSAQRILGPSNVPQRVLAQAQKPILSSQKPTTQIPLRPATQGHQSSKPQGPNENRNPQQTSHSSTPNVEKKGSTDQGKTSAVPKEEGKKKQWCLEDFEIGRPLGKGKFGNVYLARERESKFILALKVLFKSQLEKAGVEHQLRREVEIQSHLRHPNILRLYGYFHDASRVYLILDYAPGGELFRELQKCTRFDDQRSAMYIKQLAEALLYCHSKKVIHRDIKPENLLLGSNGELKIADFGWSVHAPSSRRTTLCGTLDYLPPEMIEGRMHDETVDLWSLGVLCYEFLVGKPPFETDTHQETYRRISKVEFQYPPYVSEEARDLVSKLLKHNPNHRLPLKGVLEHPWIIKNSQLKKKDEPLPGAQ
In the case of B1, the “AurA activation, as determined by autophosphorylation of the activation loop at threonine 295 of AurA with antibody recognizing phospho-T295” value [1] is reported as “RanGTP-induced AurA activation in TPX2-depleted egg extracts could be rescued by adding purified wild-type TPX2” and the “AurA activation, as determined by autophosphorylation of the activation loop at threonine 295 of AurA with antibody recognizing phospho-T295” value [2] is reported as “AurA activation was either completely lacking or slightly enhanced compared to the TPX2-depleted egg extract”.
